Source: patent US20220242974A1 (QURE BIOTECHNOLOGY SHANGHAI, published 2022)

B1: QP1129 nanobody (VHH)
VHH: QVQLVESGGGSVQSGGSLRLSCAASGYSSSRYSVGWFRQAPGKEREGVAGQTPRGTTTYADSVKDRFTISRDNAKNTVYLQMNSLKPEDTAMYYCAAGQALLWASLRQTSYQFWGQGTQVTVSS
notes: as m59
B2: QP1130 nanobody (VHH)
VHH: QVQLVESGGGLVQPGGSLRLSCAASGFTFSTSTMMWVRRAPGKGLEWVSGIHNDGGPIAYADSVKGRFTISRDNAKNTLYLQMTSLKSEDTALYYCARGWYFSGDYVPMTQGTQVTVSS
notes: as m59
B3: QP1147 nanobody (VHH)
VHH: QVQLVESGGGSVQAGGSLTLSCAVSGNTYSTKYMGWFRQAPGKEREGVAAILAGGRNTYYADSVKGRFTISQDNAKNTVYLQMNSLKPEDTAMYYCAADTRAAFWYIGPLNSDQYNIWGQGTQVTVSS
notes: as m59
B4: QP1139 nanobody (VHH)
VHH: QVQLVESGGGSVQAGGSLTLSCAVSGNTYGTNAMGWFRQAPGKEREGVAAILGGGRNTYYADSVKGRFTISQDNAKNTVYLQMNSLKPEDTAMYYCAADTRAAFWNIGPLNSDQYNIWGQGTQVTVSS
notes: as m59
B5: QP1140 nanobody (VHH)
VHH: QVQLVESGGGSVQAGGSLTLSCVVSGNTYSTKYMGWFRQAPGKEREGVAAILAGGRNTYYADSVKGRFTISQDNAKNTVYLQMNSLKPEDTAMYYCAADTRAAFWNIGPLNSDQYNIWGQGTQVTVSS
notes: as m59
B6: QP1141 nanobody (VHH)
VHH: QVQLVESGGGSVQAGGSLTLSCAVSGNTYSTNAMGWFRQAPGKEREGVAAILGGGRNTYYADSVKGRFTISQDNAKNTVYLQMNSLKPEDTAMYYCAADTRAAFWNIGPLNSDQYNIWGQGTQVTVSS
notes: as m59
B7: QP1142 nanobody (VHH)
VHH: QVQLVESGGGSVQAGGSLTLSCAVSGNTYSTNIMGWFRQAPGKEREGVAAILAGGRNTYYADSVKGRFTISQDNAKNTVYLQMNSLKPEDTAMYYCAADTRAAFWNIGPLNSDQYNIWGQGTQVTVSS
notes: as m59
B8: QP1143 nanobody (VHH)
VHH: QVQLVESGGGSVQAGGSLTLSCAVSGNTYSTKYMGWFRQAPGKEREGVAAILAGGRDTYYADSVKGRFTISQDNAKNTVYLQMNSLKPEDTAMYYCAADTRAAFWYIGPLNSDQYNIWGQGTQVTVSS
notes: as m59
B9: QP1145 nanobody (VHH)
VHH: QVQLVESGGGSVQAGGSLTLSCAVSGNTYSTKYMAWFRQAPGKEREGVAAILAGGRNTSYADSVKGRFTISQDNAKNTVYLQTNSLKPEDTAMYYCAADTRAAFWYIGPLNSHQYNIWGQGTQVTVSS
notes: as m59
B10: QP1146 nanobody (VHH)
VHH: QVQLVESGGGSVQAGGSLTLSCAVSGNTYSTNYMGWFRQAPGKEREGVAAILVGGRNTYYADSVKGRFTISQDNAKNLVYLQMNSLKPEDTAMYYCAADTRAAFWNIGPLNSDQYNIWGQGTQVTVSS
notes: as m59
B11: QP1148 nanobody (VHH)
VHH: QVQLVESGGGSVQAGGSLTLSCAVSGNTYSTNYMGWFRQAPGKEREGVAAILAGGRNTAYADSVKGRFTISQDNAKNTVYLQMNSLKPEDTAMYYCAADTRAAFWNIGPLNSDQYNIWGQGTQVTVSS
notes: as m59
B12: QP1149 nanobody (VHH)
VHH: QVQLVESGGGSVQAGGSLTLSCAVSGNTYSTNYMGWFRQAPGKEREGVAAILAGGRNTYYADSVKGRFTISQDNAKDTVYLQMNSLKPEDTAMYYCAADTRAAFWNIGPLNSDQYNIWGQGTQVTVSS
notes: as m59
B13: QP1150 nanobody (VHH)
VHH: QVQLVESGGGSVQAGGSLTLSCAVSGNTYSTKYMGWFRQAPGKEREGVAAILAGGRNTHYADSVKGRFAISQDNAKNTVYLQMNSLKPEDTAMYYCAADTRAAFWNIGPLNSDQYNIWGQGTQVTVSS
notes: as m59
B14: QP1151 nanobody (VHH)
VHH: QVQLVESGGGSVQAGGSLTLSCAVSGNTYSTNYMGWFRQAPGKEREGVAAILTGGRNTYYADSVKGRFTISQDNAKNTVYLQMNSLKPEDTAMYYCAADTRAAFWNIGPLNSDQYNIWGQGTQVTVSS
notes: as m59
B15: QP1152 nanobody (VHH)
VHH: QVQLVESGGGSVQAGGSLTLSCAISGNTYSTKYMGWFRQAPGKEREGVAAILAGGRNTYYADSVKGRFTISQDNAKNTVYLQMHSLKPEDTAMYYCAADTRAAFWYIGPLNSDQYNLWGQGTQVTVSS
notes: as m59
B16: QP1153 nanobody (VHH)
VHH: QVQLVESGGGSVQAGGSLTLSCAVSGNTYSTKYMGWFRQAPGKEREGVAAILAGGRNTDYADSVKGRFTISQDNAKNTVYLQMNSLKPEDTAMYYCAADTRAAFWSIGPLNSDQYNIWGQGTQVTVSS
notes: as m59
B17: QP1154 nanobody (VHH)
VHH: QVQLVESGGGSVQAGGSLTLSCAVSGNTYSTNYMAWFRQAPGKEREGVAAIRAGGRNTDYADSVKGRFTISQDNAKNTVYLQMNSLKPEDTAMYYCAADTRAAFWYIGPLNSDQYNIWGQGTQVTVSS
notes: as m59
B18: QP1155 nanobody (VHH)
VHH: QVQLVESGGGSVQAGGSLTLSCEVSGSTYSTNYMGWFRQAPGKEREGVAAILAGGRNTDYADSVKGRFTISQDNAKNTVYLQMNSLKPEDTAMYYCAADTRAAFWYIGPLNSDQYNIWGQGTQVTVSS
notes: as m59
B19: QP1156 nanobody (VHH)
VHH: QVQLVESGGGSVQAGGSLTLSCAVSGNTYSTKYMGWFRQAPGKEREGVAAILAGGRNTYYADSVKGRFTISQDSAKNTVYLQMNSLKPEDTAMYYCAADTRAAFWYIGPLNSDQYNSWGQGTQVTVSS
notes: as m59
B20: QP1157 nanobody (VHH)
VHH: QVQLVESGGGSVQAGGSLTLSCAVSGNTYSTNYMGWFRQAPGKEREGVAAILVGGRNTYYADPVKGRFTISQDNAKNLVYLQMNSLKPEDTAMYYCAADTRAAFWNIGPLNSDQYNIWGQGTQVTVSS
notes: as m59
B21: QP1158 nanobody (VHH)
VHH: QVQLVESGGGSVQAGGSLTLSCAVSGNTYSTKYMGWFRQAPGKEREGVAAILAGGRNTYYADSVKGRFTISQDNAKNTVYLRMNSLKPEDTAMYYCAADTRAALWYIGPLNSDQYNTWGQGTQVTVSS
notes: as m59
B22: QP1159 nanobody (VHH)
VHH: QVQLVESGGGSVQAGGSLTLSCAVSGNTYSTKYMGWFRQAPGKEREGVAAILAGGRNTSYADSVKGRFTISQDNAKNTVYLQMNSLKPEDTAMYYCAADTRAAFWYIGPLNSDQYNIWGQGTQVTVSS
notes: as m59
B23: QP1160 nanobody (VHH)
VHH: QVQLVESGGGSVQAGGSLTLSCAISGNTYSTKYMGWFRQAPGKEREGVAAILAGGRNTYYADSVKGRFTISQDNAKNTVYLQMNSLKPEDTAMYYCAADARAAFWYIGPLNSDQYNIWGQGTQVTVSS
notes: as m59
B24: QP1161 nanobody (VHH)
VHH: QVQLVESGGGSVQAGGSLTLSCAVSGNTYSTNYMAWFRQAPGKEREGVAAIRVGGRNTDYADSVKGRFTISQDNAKNTVYLQMNSLKPEDTAMYYCAADTRAAFWYIGPLNSDQYNIWGQGTQVTVSS
notes: as m59
B25: QP1121 nanobody (VHH)
VHH: QVQLVESGGGSVHAGGSLRLSCVRVSMYTYTGTCMAWFRQAPGKEREGVAGLWTGDGVTYYADSVKGRFTISQDDAKNTLYLQMDSLKPEDTAMYYCASNGMCGQYWALEDEYKYWGQGTQVTVSS
notes: as m59
B26: QP1163 nanobody (VHH)
VHH: QVQLVESGGGSVQSGGSLRLSCAASGFTYGTYAMSWFRQAPGKEREGVACIDIYGRTSYTDPVKGRFTISQDNAKNTLYLQMNSLKPEDTAMYYCAARDFGYCTASWVHAGFSRYWGQGTQVTVSS
notes: as m59
B27: QP1164 nanobody (VHH)
VHH: QVQLVESGGGSVQSGGSLRLSCAASGFTYGTYAMSWFRQTPGKEREGVACIDIYGRTSYTDPVKGRFTISQDNAKNTLYLQMNSLKPEDTAMYYCAARDFGYCTASWVHEGFSRYWGQGTQVTVSS
notes: as m59
B28: QP1165 nanobody (VHH)
VHH: QVQLVESGGGSVQSGGSLRLSCAASGFTYGAYAMSWFRQAPGKEREGVACIDIYGRTSYTDPVKGRFTISQDNAKNTLYLQMNSLKPEDTAMYYCAARDFGYCTASWVHEGFSRYWGQGTQVTVSS
notes: as m59
B29: QP1168 nanobody (VHH)
VHH: QVQLVESGGGSVQSGGSLRLSCAASGFTYETYAMSWFRQAPGKEREGVACIDIYGRTSYTDPVKGRFTISQDNAKNTLYLQMNSLKPEDTAMYYCAARDFGYCTASWVHEGFSRYWGQGTQVTVSS
notes: as m59
B30: QP1169 nanobody (VHH)
VHH: QVQLVESGGGSVQSGGSLRLSCAASGFTYGTYAMSWFRQAPGKEREGVACIDIYGRTSYTDPVKGRFTISQDNAKNTLYLQMNSLKPGDTAMYYCAARDFGYCTASWVHEGFSRYWGQGTQVTVSS
notes: as m59
B31: QP1123 nanobody (VHH)
VHH: QVQLVESGGGSVQSGGSLRLSCAASGYTVRHYCMGWFRQTPGKEREGVASIDTFGIPKYADSVKGRFTISQDNAKNTLNLQMDSLKPEDTAMYFCAGRSYTNCRDGPPSASHYSHWGQGTQVTVSS
notes: as m59
B32: QP1124 nanobody (VHH)
VHH: QVQLVESGGGLVQPGGSLRLSCTAPGFTSNTCAMGWYRQAAGMQREWVSSISKYGITTYANSVKGRFTISKDKAEDTVYLQMNNLKPEDTAMYVCKTFSCRNRGGAYLADAWGQGTQVTVSS
notes: as m59

target: PD-L1-his fusion protein (Homo sapiens (Human), UniProt Q9NZQ7 19-238); assay: ELISA, PD-L1-his coated, culture supernatant of the clone
Sequence (Q9NZQ7 other isoform, or with tags, fused parts or gaps limits assumed): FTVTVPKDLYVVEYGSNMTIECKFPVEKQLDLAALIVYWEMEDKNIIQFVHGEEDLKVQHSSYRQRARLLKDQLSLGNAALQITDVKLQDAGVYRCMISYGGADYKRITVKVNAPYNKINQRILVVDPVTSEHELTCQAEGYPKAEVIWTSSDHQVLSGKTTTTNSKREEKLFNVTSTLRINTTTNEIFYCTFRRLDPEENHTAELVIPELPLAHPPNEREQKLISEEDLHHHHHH

Binding result, binds:
B1
B2
B3
B4
B5
B6
B7
B8
B9
B10
B11
B12
B13
B14
B15
B16
B17
B18
B19
B20
B21
B22
B23
B24
B25
B26
B27
B28
B29
B30
B31
B32
